In US20220259318A1 (Hoffmann-La Roche, published 2022):
Residue numbers refer to the chain shown, from its start. Values joined by “and” are separate entries in the source; they are usually repeats but may differ in a detail not shown here. Identical values can stand only once.

B1: P1AE5709 (antibody, V domains shown)
VH: EVQLLESGGGLVQPGGSLRLSCAASGFTFSKYAMAWVRQAPGKGLEWVASISTGGVNTYYRDSVKARFTISRDNSKNTLYLQMNSLRAEDTAVYYCATHTGDYFDYWGQGTMVTVSS
VL: EIVLTQSPGTLSLSPGERATLSCRASQSVSISGINLMNWYQQKPGQQPRLLIYHASILASGIPDRFSGSGSGTDFTLTISRLEPEDFAVYYCQQTRESPLTFGQGTRLEIK
notes: Humanized 5E11 IgG; PGLALA Fc implied by the CAR-J assay; also called 5E11_VH1a + 5E11_VL2a
B2: P1AE5712 (antibody, V domains shown)
VH: B1 VH
VL: DIQMTQSPSSLSASVGDRVTITCRASQSVSISGINLMNWYQQKPGKQPKLLIYHASILASGVPSRFSGSGSGTDFTLTISSLQPEDFATYYCQQTRESPLTFGQGTRLEIK
notes: Humanized 5E11 IgG; PGLALA Fc implied by the CAR-J assay; also called 5E11_VH1a + 5E11_VL3a
B3: P1AE5707 (antibody, V domains shown)
VH: B1 VH
VL: DIVMTQSPDSLAVSLGERATINCRASQSVSISGINLMNWYQQKPGQQPKLLIYHASILASGVPDRFSGSGSGTDFTLTISSLQAEDVAVYYCQQTRESPLTFGQGTRLEIK
notes: Humanized 5E11 IgG; PGLALA Fc implied by the CAR-J assay; also called 5E11_VH1a + 5E11_VL1a
B4: P1AE5720 (antibody, V domains shown)
VH: B1 VH with R61A, A66G
VL: B3 VL
notes: Humanized 5E11 IgG; PGLALA Fc implied by the CAR-J assay; also called 5E11_VH1c + 5E11_VL1a
B5: P1AE5714 (antibody, V domains shown)
VH: B1 VH with V2L, S75A
VL: B3 VL
notes: Humanized 5E11 IgG; PGLALA Fc implied by the CAR-J assay; also called 5E11_VH1b + 5E11_VL1a
B6: P1AE5722 (antibody, V domains shown)
VH: B1 VH with R61A, A66G
VL: B1 VL
notes: Humanized 5E11 IgG; PGLALA Fc implied by the CAR-J assay; also called 5E11_VH1c + 5E11_VL2a
B7: P1AE5713 (antibody, V domains shown)
VH: B1 VH
VL: B2 VL with K46Q
notes: Humanized 5E11 IgG; PGLALA Fc implied by the CAR-J assay; also called 5E11_VH1a + 5E11_VL3b
B8: P1AE5710 (antibody, V domains shown)
VH: B1 VH
VL: B1 VL with R49K
notes: Humanized 5E11 IgG; PGLALA Fc implied by the CAR-J assay; also called 5E11_VH1a + 5E11_VL2b
B9: P1AE5721 (antibody, V domains shown)
VH: B1 VH with R61A, A66G
VL: B3 VL with R24K, A25S
notes: Humanized 5E11 IgG; PGLALA Fc implied by the CAR-J assay; also called 5E11_VH1c + 5E11_VL1c
B10: P1AE5727 (antibody, V domains shown)
VH: B1 VH with V2L, R61A, A66G, S75A
VL: B3 VL with R24K, A25S
notes: Humanized 5E11 IgG; PGLALA Fc implied by the CAR-J assay; also called 5E11_VH1d + 5E11_VL1c
B11: P1AE5729 (antibody, V domains shown)
VH: B1 VH with V2L, R61A, A66G, S75A
VL: B1 VL with R49K
notes: Humanized 5E11 IgG; PGLALA Fc implied by the CAR-J assay; also called 5E11_VH1d + 5E11_VL2b
B12: P1AE5717 (antibody, V domains shown)
VH: B1 VH with V2L, S75A
VL: B1 VL with R49K
notes: Humanized 5E11 IgG; PGLALA Fc implied by the CAR-J assay; also called 5E11_VH1b + 5E11_VL2b
B13: P1AE5726 (antibody, V domains shown)
VH: B1 VH with V2L, R61A, A66G, S75A
VL: B3 VL
notes: Humanized 5E11 IgG; PGLALA Fc implied by the CAR-J assay; also called 5E11_VH1d + 5E11_VL1a
B14: P1AE5708 (antibody, V domains shown)
VH: B1 VH
VL: B3 VL with R24K, A25S
notes: Humanized 5E11 IgG; PGLALA Fc implied by the CAR-J assay; also called 5E11_VH1a + 5E11_VL1c
B15: P1AE5715 (antibody, V domains shown)
VH: B1 VH with V2L, S75A
VL: B3 VL with R24K, A25S
notes: Humanized 5E11 IgG; PGLALA Fc implied by the CAR-J assay; also called 5E11_VH1b + 5E11_VL1c
B16: P1AE5716 (antibody, V domains shown)
VH: B1 VH with V2L, S75A
VL: B1 VL
notes: Humanized 5E11 IgG; PGLALA Fc implied by the CAR-J assay; also called 5E11_VH1b + 5E11_VL2a
B17: P1AE5754 (antibody, V domains shown)
VH: EVQLVESGGGVVQPGRSLRLSCAASGFSFSNYGMAWVRQAPGKGLEWVASISTGGGNTYYADSVKGRFTISRDNAKNTLYLQMNSLRAEDTAVYYCTRHDRGGLYWGQGTMVTVSS
VL: EIVLTQSPGTLSLSPGERATLSCRASKSLLHSNGITYVYWYQQKPGQAPRLLIYRMSNLASGIPDRFSGSGSGTDFTLTISRLEPEDFAVYHCGQLLENPYTFGQGTKLEIK
notes: Humanized 5F11 IgG; PGLALA Fc implied by the CAR-J assay; also called 5F11_VH1d + 5F11_VL2c
B18: P1AE5764 (antibody, V domains shown)
VH: B17 VH with V11L, R16G
VL: B17 VL
notes: Humanized 5F11 IgG; PGLALA Fc implied by the CAR-J assay; also called 5F11_VH2d + 5F11_VL2c
B19: P1AE5759 (antibody, V domains shown)
VH: B17 VH with V11L, R16G, A61R
VL: B17 VL
notes: Humanized 5F11 IgG; PGLALA Fc implied by the CAR-J assay; also called 5F11_VH2b + 5F11_VL2c
B20: 10B10-TCB (bispecific antibody, human IgG1, kappa, L234A L235A)
light 1: DIQLTQSPHSLSASLGETVSIECLASEGISNYLAWFHQKPGKSPQLLIYYASSLQDGVPSRFSGSGSGTQYSLKISNMQPEDEGVYYCQQGYKYPLTFGSGTKLEIKRTVAAPSVFIFPPSDRKLKSGTASVVCLLNNFYPREAKVQWKVDNALQSGNSQESVTEQDSKDSTYSLSSTLTLSKADYEKHKVYACEVTHQGLSSPVTKSFNRGEC
light 2: EVQLLESGGGLVQPGGSLRLSCAASGFTFSTYAMNWVRQAPGKGLEWVSRIRSKYNNYATYYADSVKGRFTISRDDSKNTLYLQMNSLRAEDTAVYYCVRHGNFGNSYVSWFAYWGQGTLVTVSSASVAAPSVFIFPPSDEQLKSGTASVVCLLNNFYPREAKVQWKVDNALQSGNSQESVTEQDSKDSTYSLSSTLTLSKADYEKHKVYACEVTHQGLSSPVTKSFNRGEC
heavy 1: EVQLVESGGGLVQPGRSMKLSCAASGFTFTNFYMAWVRQAPTKALEWVASINTGGGYTYYRDSVKGRFTVSRDNTRSTLYLQMDSLRSEETATYYCARHLTYYGRYYYFDYWGQGVMVTVSSASTKGPSVFPLAPSSKSTSGGTAALGCLVEDYFPEPVTVSWNSGALTSGVHTFPAVLQSSGLYSLSSVVTVPSSSLGTQTYICNVNHKPSNTKVDEKVEPKSCDKTHTCPPCPAPEAAGGPSVFLFPPKPKDTLMISRTPEVTCVVVDVSHEDPEVKFNWYVDGVEVHNAKTKPREEQYNSTYRVVSVLTVLHQDWLNGKEYKCKVSNKALGAPIEKTISKAKGQPREPQVCTLPPSRDELTKNQVSLSCAVKGFYPSDIAVEWESNGQPENNYKTTPPVLDSDGSFFLVSKLTVDKSRWQQGNVFSCSVMHEALHNHYTQKSLSLSPGK
heavy 2: not shown

What follows are binders tested against T1, human GPRC5D (human, UniProt Q9NZD1 1-345) (assay: cell-based or functional assay).
T1 sequence (Q9NZD1 whole entry): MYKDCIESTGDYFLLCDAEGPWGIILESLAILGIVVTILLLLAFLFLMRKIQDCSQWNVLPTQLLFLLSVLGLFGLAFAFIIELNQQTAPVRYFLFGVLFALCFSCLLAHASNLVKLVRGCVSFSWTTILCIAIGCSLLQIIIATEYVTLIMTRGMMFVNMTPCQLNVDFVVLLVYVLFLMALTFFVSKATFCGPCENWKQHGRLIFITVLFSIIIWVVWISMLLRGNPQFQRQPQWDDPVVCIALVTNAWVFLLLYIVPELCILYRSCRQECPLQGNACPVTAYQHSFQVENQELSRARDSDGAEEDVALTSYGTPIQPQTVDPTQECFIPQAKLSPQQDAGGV

Binder | CAR-J2 EC50 [ng/mL] (PGLALA-CAR-J activation, L363 target cells)
B1 | 59.4
B2 | 16.1
B3 | 42.4
B4 | 6.3
B5 | 5.5
B6 | 4.6
B7 | 76.9
B8 | 3.5
B9 | 25
B10 | 6.3
B11 | 61.3
B12 | 79.9
B13 | 37.8
B14 | 456
B15 | 3.6
B16 | 3.3

The binders below were run against T1, human GPRC5D (assay: cell ELISA, CHO hu GPRC5D (EC/IC50 rel)).
Procedure: Stable transfected CHO clones expressing either human GPRCSD or cynomolgus GPRCSD or murine GPRCSD or human GPRCSA were used to analyze the binding of potential lead candidate antibodies as IgGs. In detail, 10⁴ cells (viability≥98%) were seeded into 384 well-microtiter plates (BD Poly D-Lysin, #356662, volume: 25 μl/well) using fresh culture medium. After overnight incubation at 37° C., 25 μl/well dilutions of antibodies were added (15×1:3 dilutions in 1×PBS, assay conc. starts at 30 μg/ml) to the cells for 2 hours at 4° C. After one washing step using 90 μl/well PBST (10×PBS, Roche, #11666789001+0.1% Tween 20), cells were subsequently fixed by the addition of 50 μl/well 0.05% glutaraldehyde (Sigma Cat. No: G5882 in 1×PBS) for 10 min at room temperature (RT). After three additional washing steps using 90 μl/well PBST, secondary antibodies were added for detection: for human antibodies goat anti-human Ig a chain antibody HRP conjugate (Millipore #AP502P) diluted 1:2000 in blocking buffer (1×PBS (Roche #11666789001)+2% BSA (Bovine Serum Albumin Fraction V, fatty acid free, Roche, #10735086001)+0.05% Tween 20) was used (25 μl/well). […] After incubation for 1 h at RT and three additional washing steps using 90 μl/well PBST, 25 μl/well TMB substrate was added (Roche order no. 11835033001) for 10 min and color development to final ODs was determined by measurement at 370 nm/492 nm.
For the characterization of the humanization variants of the VH and VL domains of the GPRC5D binders the ELISA protocol as described above was used (see Example 7). The data are summarized in the table 10 for the humanization variants of 5E11 and in table 11 for the humanization variants of 5F11.

Binder | EC50
B1 | 0.0191 µg/mL and 0.13 nM
B2 | 0.0131 µg/mL and 0.09 nM
B3 | 0.0142 µg/mL and 0.09 nM
B4 | 0.0217 µg/mL and 0.14 nM
B5 | 0.0129 µg/mL and 0.09 nM
B6 | 0.0197 µg/mL and 0.13 nM
B7 | 0.0165 µg/mL and 0.11 nM
B8 | 0.0101 µg/mL and 0.07 nM
B9 | 0.0183 µg/mL and 0.12 nM
B10 | 0.0087 µg/mL and 0.06 nM
B11 | 0.0104 µg/mL and 0.07 nM
B12 | 0.0139 µg/mL and 0.09 nM
B13 | 0.0076 µg/mL and 0.05 nM
B14 | 0.012 µg/mL and 0.08 nM
B15 | 0.0211 µg/mL and 0.14 nM
B16 | 0.0151 µg/mL and 0.1 nM
B17 | 0.009 µg/mL and 0.06 nM
B18 | 0.0045 µg/mL and 0.03 nM
B19 | 0.0031 µg/mL and 0.02 nM

Molecular target: T1, human GPRC5D
Experiment: cell-based or functional assay
Remark: another data set of the same source

Binder | EC50 in vitro killing assay, AMO-1 [pM] | EC50 in vitro killing assay, EJM [pM] | EC50 in vitro killing assay, L363 [pM] | EC50 in vitro killing assay, MOLP-2 [pM] | EC50 in vitro killing assay, NCI-H929 [pM] | EC50 in vitro killing assay, OPM-2 [pM] | EC50 in vitro killing assay, RPMI [pM]
B20 | 84 | 79 | 34 | 160 | 56 | 28 | 965

Molecular target: T1, human GPRC5D
Experiment: cell-based or functional assay
Remark: another data set of the same source

Binder | CAR-J2 EC50 [ng/mL] (PGLALA-CAR-J activation, L363 target cells)
B17 | 8.89
B18 | 78.2
B19 | 15.7
